Assay results as given in article PMC12084609, “Structural insights into small-molecule agonist recognition and activation of complement receptor C3aR” (The EMBO Journal, 2025).
Residue numbers refer to the chain shown, from its start. Values joined by “and” are separate entries in the source; they are usually repeats but may differ in a detail not shown here. Equal values may be shown once.

How the values were obtained:
C3aR H418^7.36A = target: T1, C3aR H418^7.36A (Homo sapiens, UniProt Q16581, H418A); assay: GloSensor-based cAMP assay, C3aR mutant H418A; format: cell-based; settings: for cAMP response (% Forskolin): single replicates
T1 construct: expressed in transfected cells; host or cells: HEK293T
T1 sequence (Q16581 1-482 H418A): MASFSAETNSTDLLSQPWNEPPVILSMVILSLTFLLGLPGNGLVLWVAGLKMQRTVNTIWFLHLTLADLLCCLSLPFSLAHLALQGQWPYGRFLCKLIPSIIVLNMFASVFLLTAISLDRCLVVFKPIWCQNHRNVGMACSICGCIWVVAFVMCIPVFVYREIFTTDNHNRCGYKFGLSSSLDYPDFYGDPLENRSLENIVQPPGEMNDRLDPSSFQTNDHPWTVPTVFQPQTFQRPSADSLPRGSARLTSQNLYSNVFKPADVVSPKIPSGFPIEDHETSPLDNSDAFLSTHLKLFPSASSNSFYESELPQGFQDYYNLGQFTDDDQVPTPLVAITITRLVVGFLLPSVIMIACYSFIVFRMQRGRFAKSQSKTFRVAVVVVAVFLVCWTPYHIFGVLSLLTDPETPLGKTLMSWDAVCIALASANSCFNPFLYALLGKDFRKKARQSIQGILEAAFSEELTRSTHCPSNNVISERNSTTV
Protocol: (§1) HEK293T cells were seeded on 6-well plates (NEST) and transfected with pGlosensor™-22F plasmids (Promega) and pcDNA3.1 plasmids encoding C3aR or its mutants an with N-terminal FLAG tag. After 48 h, cells were detached with Accutase solution (Sigma-Aldrich) and washed with PBS, and resuspended in assay buffer (CO2-independent medium with 0.5 mg mL^−1D-luciferin). 100,000–200,000 cells were seeded on 96-well white bottom plates (SPL) and incubated at 37 °C for 45 min followed by 45 min incubation at room temperature. After 90 min of incubation, basal luminescence signals were recorded. In total, 25 μl of test ligand with various concentrations and 1 μM Forskolin (Sigma-Aldrich) were treated to the cells and luminescence signals were measured by Tristar 2 LB 942 multimode reader (Berthold). […] Relative luminescence unit (%) was calculated with the signal of wells treated with vehicle as 0% and the signal of wells treated with 1 μM Forskolin as 100% (DiRaddo et al, [2014]). Nonlinear regression was performed using a three-parameter logistic equation.

C3aR WT = target: T2, C3aR WT (Homo sapiens, UniProt Q16581); assay: GloSensor-based cAMP assay, WT C3aR (HEK293T); format: cell-based; settings: individual replicates
T2 construct: expressed in transfected cells; host or cells: HEK293T
T2 sequence (Q16581 1-482): T1 sequence (Q16581 1-482 H418A) with A418H
Protocol: as §1

C3a: anaphylatoxin C3a, natural peptide ligand of C3aR (a 77-amino acid peptide), Sigma-Aldrich
Mean Diff. of pIC50, WT vs. H418A (C3aR H418^7.36A; Dunnett's multiple comparisons test, WT minus mutant): 0.008 | cAMP response (% Forskolin) (C3aR H418^7.36A; H418A, Log[C3a (M)] -7): 25.95 % Forskolin and 18.34 % Forskolin and 14.90 % Forskolin and 10.15 % Forskolin | cAMP response (% Forskolin) (C3aR H418^7.36A; H418A, Log[C3a (M)] -8): 26.38 % Forskolin and 19.33 % Forskolin and 14.37 % Forskolin and 9.75 % Forskolin | cAMP response (% Forskolin) (C3aR H418^7.36A; H418A, Log[C3a (M)] -9): 37.00 % Forskolin and 39.46 % Forskolin and 38.86 % Forskolin and 18.94 % Forskolin | cAMP response (% Forskolin) (C3aR H418^7.36A; H418A, Log[C3a (M)] -10): 73.80 % Forskolin and 84.21 % Forskolin and 84.87 % Forskolin and 53.38 % Forskolin | cAMP response (% Forskolin) (C3aR H418^7.36A; H418A, Log[C3a (M)] -11): 92.78 % Forskolin and 94.37 % Forskolin and 96.55 % Forskolin and 91.56 % Forskolin | cAMP response (% Forskolin) (C3aR H418^7.36A; H418A, Log[C3a (M)] -12): 97.08 % Forskolin and 98.99 % Forskolin and 94.98 % Forskolin and 97.61 % Forskolin | ΔpIC50 ± SE of Diff. (C3aR H418^7.36A; H418^7.36A relative to WT C3aR): -0.008 ± 0.011 | IC50 (C3aR H418^7.36A; H418^7.36A, dose-response plot, read-out: IC50): 3.34 nM | pIC50 (Replicate) (C3aR H418^7.36A; H418^7.36A, individual replicates): 8.55 and 8.43 and 8.42 (2×) and 8.38 and 8.70 | pIC50 ± SEM (Mean) (C3aR H418^7.36A; H418^7.36A, mean of independent experiments): 8.49 | cAMP response (% Forskolin) (C3aR H418^7.36A; H4187.36A, Log[C3a (M)] -7): 18.06 % Forskolin and 18.98 % Forskolin and 15.70 % Forskolin and 12.14 % Forskolin and 13.13 % Forskolin and 12.07 % Forskolin and 13.03 % Forskolin | cAMP response (% Forskolin) (C3aR H418^7.36A; H4187.36A, Log[C3a (M)] -8): 24.13 % Forskolin and 25.40 % Forskolin and 25.03 % Forskolin and 14.18 % Forskolin and 21.72 % Forskolin and 18.92 % Forskolin and 21.43 % Forskolin | cAMP response (% Forskolin) (C3aR H418^7.36A; H4187.36A, Log[C3a (M)] -9): 81.20 % Forskolin and 92.26 % Forskolin and 92.38 % Forskolin and 94.46 % Forskolin and 94.81 % Forskolin and 73.56 % Forskolin and 81.94 % Forskolin | cAMP response (% Forskolin) (C3aR H418^7.36A; H4187.36A, Log[C3a (M)] -10): 97.67 % Forskolin and 104.16 % Forskolin and 99.86 % Forskolin and 96.43 % Forskolin and 93.22 % Forskolin and 100.34 % Forskolin and 90.38 % Forskolin | cAMP response (% Forskolin) (C3aR H418^7.36A; H4187.36A, Log[C3a (M)] -11): 100.38 % Forskolin and 103.33 % Forskolin and 102.03 % Forskolin and 95.26 % Forskolin and 97.84 % Forskolin and 98.73 % Forskolin and 97.27 % Forskolin | cAMP response (% Forskolin) (C3aR H418^7.36A; H4187.36A, Log[C3a (M)] -12): 93.49 % Forskolin and 89.91 % Forskolin and 97.60 % Forskolin and 95.65 % Forskolin and 97.38 % Forskolin and 104.40 % Forskolin and 97.91 % Forskolin | cAMP response (% Forskolin) (C3aR WT; Log[ligand (M)] -7): 13.23 % Forskolin and 9.10 % Forskolin and 12.07 % Forskolin and 14.17 % Forskolin and 11.07 % Forskolin and 5.64 % Forskolin and 5.88 % Forskolin and 10.80 % Forskolin and 18.77 % Forskolin and 9.30 % Forskolin and 7.84 % Forskolin and 11.11 % Forskolin and 5.15 % Forskolin and 8.46 % Forskolin and 12.88 % Forskolin and 7.97 % Forskolin and 4.89 % Forskolin and 13.21 % Forskolin and 8.34 % Forskolin and 9.36 % Forskolin and 10.44 % Forskolin | cAMP response (% Forskolin) (C3aR WT; Log[ligand (M)] -8): 14.46 % Forskolin and 11.08 % Forskolin and 11.75 % Forskolin and 14.58 % Forskolin and 33.21 % Forskolin and 8.44 % Forskolin and 9.26 % Forskolin and 14.67 % Forskolin and 23.44 % Forskolin and 12.45 % Forskolin and 9.97 % Forskolin and 12.70 % Forskolin and 7.51 % Forskolin and 11.02 % Forskolin and 17.00 % Forskolin and 9.96 % Forskolin and 6.25 % Forskolin and 18.05 % Forskolin and 9.98 % Forskolin and 10.68 % Forskolin and 14.94 % Forskolin | cAMP response (% Forskolin) (C3aR WT; Log[ligand (M)] -9): 89.10 % Forskolin and 91.75 % Forskolin and 55.83 % Forskolin and 67.46 % Forskolin and 97.65 % Forskolin and 80.78 % Forskolin and 91.72 % Forskolin and 89.77 % Forskolin and 62.11 % Forskolin and 58.26 % Forskolin and 94.14 % Forskolin and 92.02 % Forskolin and 88.40 % Forskolin and 88.60 % Forskolin and 88.28 % Forskolin and 92.79 % Forskolin and 82.03 % Forskolin and 98.67 % Forskolin and 72.46 % Forskolin and 83.05 % Forskolin and 92.23 % Forskolin | cAMP response (% Forskolin) (C3aR WT; Log[ligand (M)] -10): 100.49 % Forskolin and 92.00 % Forskolin and 96.47 % Forskolin and 95.65 % Forskolin and 99.73 % Forskolin and 94.19 % Forskolin and 91.55 % Forskolin and 96.59 % Forskolin and 91.09 % Forskolin and 100.53 % Forskolin and 103.10 % Forskolin and 100.18 % Forskolin and 107.39 % Forskolin and 101.42 % Forskolin and 99.05 % Forskolin and 90.86 % Forskolin and 91.78 % Forskolin and 95.04 % Forskolin and 92.70 % Forskolin and 92.81 % Forskolin and 96.03 % Forskolin | cAMP response (% Forskolin) (C3aR WT; Log[ligand (M)] -11): 101.69 % Forskolin and 104.79 % Forskolin and 99.76 % Forskolin and 97.79 % Forskolin and 100.01 % Forskolin and 95.95 % Forskolin and 100.56 % Forskolin and 98.17 % Forskolin and 98.43 % Forskolin and 104.54 % Forskolin and 103.48 % Forskolin and 99.03 % Forskolin and 107.10 % Forskolin and 101.90 % Forskolin and 98.42 % Forskolin and 97.15 % Forskolin and 94.72 % Forskolin and 92.05 % Forskolin and 96.59 % Forskolin and 94.55 % Forskolin and 98.62 % Forskolin
